The DeepSol protein solubility set

Experiment: soluble on expression in E. coli; label from the status in PepcDB or PDB records

Sequence	soluble on expression in E. coli
MSLRASVAATKQKRFVAVDIETTGLNTESDQILSIGAVKHDGIEFYRLIKQDIDVPKQIVELTGITSEMLSKEGVPLQDALEELTDFVGNVPIVGYNFRFDSVFLNRDYRKCGMQELKNEIKDLLPVVKRREKFLDNYKLQTVLSNYGIENKVPHNAVSDARATKELAMKLIKNRILVIEGHHHHHH	soluble
MSLRDAKTWFTDTVLKDQNGRELRFYSDVLKDKVVMLNVIFTHCTDACPLITRKLREVREAMGPALAAQVTFVSISSDPLNDTPEALKAFAAKQGVDGPNWLFLTGDKANVDLVLGRIGQFLPSPEQHSTQLIAGDVAGKRWSKIRPDAPPAAIAQRMQLLTQPLAGREGHHHHHH	soluble
MSLRGLRGRSFTIGVLLIDIRNPFLPEVIAGVNEVLGPSHYQAMIGVSDARVQLETSLIESMIDYKMDGLILVAPRLPSEILATFAVQIPIVAVGYHDASATAFDTVNAE	soluble
MSLRGRTSTLKVAILCFEKDRPKLEALKEILGRSYEVEFVDYSKDVWDDVLQYDCIVAYLASGIVVRGICGRLRGKWKDPAVIVLDKPLKHAVVMLGGHHGGNEVAKKLEEAGLKAVITTAMEFTEGYSVGVGFRKNATADEILEAIAMALEEVGGRMEEIRVISTVDAKRDSAIVEVANRLKRPLIFVRAEEINSMDIRETKAVKIGVKNVAEACAIYASNSGELILPKRVYGGVTVAIAWEGHHHHHH	soluble
MSLRIAVVGATGRIGSKLTRTLLGAGHQVKALSRGGAALEALVEAGAEPFLGSFDTGAGALDTFFQDVEAAFLMVKTDWNNIEGHYPAVAQRFVDALRGSPVKLAVSLSAMGSDVDGKTGHFELFHHLDQRLNELNDIDMVHLRAAWFMENTLAWTASVAKYGRLAWFYEPDLKMPWVATDDIAGLAAKELTNPTGDHRVIRETGSEDLTMNELAAMIGREIGKPVEYRFIDRGRKEIENEYLARFGTPEHWLDDSRSADALNHGVVRFQGGDDVRPVLPTTMEAFLKTIWTPRYLEALASEEGHHHHHH	soluble
MSLRIFLCGCVHGSWEVVVNEVNKLVAKGTKIDLIIVAGDTESFRSKSDLESYNYQRQNHDLGTFHKLVSGELKLPCKMLMIGGNNEVGDMIFQLPFGGWVTPDIFFAGINSQIYFGDLLITCQSGIMNGQDYHKCISEKFPVRGCDTHLILHIREVSIFQLYGLKNVPLFVSHEWPSGIPKQYRNIPRMQFYAKSDDKNDFGCPGFVKLLNKHRPKKWYAAHLHVRFDCTLKNGTKFTGVPKVIDKRYKWYELEEYNCNPAGGFKFSGEWINIVKNTERFVKNPKLLQNLDWDEEWRKIYETMNTEDFPEKVDVMEYNDDYQIQTKKFCDSYQIYNPYKEGHHHHHH	soluble
MSLRIIVVGGGKVGTALCRSLVAEKHDVVLIEKKENVLKRVTKQHDIMGIVGNGANYKILEQAEVKNCDIFIAITDRDEVNMISAVLAKKMGAKETVVRMRNPEYSNPYFKDKNFLGFSSVVNPELLAAQYIANTIEFPNATSVEHFANGRVMLMEFKILEGNKLCHTSMSQIRKKFGNIVICAIERDGKLIIPDGDATIQVKDKIFVTGNRIEMILFHNYVKNKVVKNLMVIGAGRIAYYLLNILKNTNTHVKLVELNQEQAEYFSQEFPNVPVVHGDGTAKNILLEESVTSFDAVATLTGVDEENIITSMFLESIGIPKNITKVNRTSLLEIIDDKQLSSIITPKRIAVDHVMHFVRGRVNAQDSNLEAMHHIANDRIETLQFEIKETSKLANRSLASLKLKQNILIAAIIRNNKTIFPTGEDVLTVGDRIVVITLLKNITRTSDMLAREGHHHHHH	soluble
MSLRILLALASLSGNTREVARVIRARCEERGHRVDWIETDLQTLAGQALDPHTYTLFLLGTWTDNAGRTPFEMKRFIVELLELIGKPPSVAVFGTGETQWGQEYYCGAVHRISDFFASRFPRLLIEQMPHGERDALAIVEWTDQVLDQCNKDSDADHYRYVAEGHHHHHH	soluble
MSLRILLVDDVQLDRMQLAIRLKQLGHIVKAVGSGIEALNTYESFDPELVLLDISMPEMNGFEVSLHVRETFPDWIPIIFLSSHEEPEMIAKAIDAGGDDYLIKPVDKLVLNSKLIAMQRIAHMRRELKQATAQLEQVNQLLTQQANEDGLTKLFNRRYIDQKLDSMVAWHGRHHMPMAMILLDVDFFKPFNDNYGHIEGDRCLQAIANQLKATFCRSGEYVGRYGGEEFVVLLSSTDAQTAEREAERIQEAMYFLDYQHEFSSVANRVTVSQGVFVFQPTGKENQADLYATADRALYTSKSLGRNTYTMVNASEGHHHHHH	soluble
MSLRISTNQIYQRGLDNLLTQQERLARLQDQQASGIRVRTPSDDPVASAQIELIKQRINNIELFQNNRQAADSALRLEEGILSNAVNSLHRLREIQIQAGNPSLSEEDRKTLAVEAQALLNQLLDYANTKDSNGSYMFSGSKSLTQPVSLNLSGQYVYNGDSTQRFQAVTTSLLVAVNDTGDNVFMRIPSGNGRFAIRETLTPNTGTASVSSGSVTNEAAFVPDNYTMTFALNSQGNLVVMVSGTLSGNVIPPSGLPDDAPLYQEGSAIGFNGMEMVVSGLPKAGDSFSISPAKNESIFSTVQRMINNLNKPYTSSVEKAATQTENNQLLAQIDSALGHILSVQSDLGARLNQLETAEKANNDYLDISAATLKKLREIDEGHHHHHH	soluble
MSLRLYFVRHGKTQWNLEGRLQGSKGDSPLLKESIEQVSELGHYLSDTHFDLVLSSDLPRAKKTTELIMESQKTKAKITYTKDLREWQLGKLEGQKLSIIQAIYPKEMDAFRHNLANFRANNFQAESVYHTTKRVADLVRTLKDSSMKNVLLVGHGANLTASIRSLLGFEPGLLRKAGGLDNASVTILETDDCEHFTLKSWNDTSYRTQVNKISEGHHHHHH	soluble
MSLRNIKWAILGPGTIARDFAKAISEVDNNIYAVASRNIERAKKFANEYKAEKFYGDYDEMLRDENIDVVYISTPHCNHYEYIIKSLENNKHVFCEKAITVNGNQLKEIVDLANKKNLIVREAMTIYHMPLYKKLRELVDEGKIGKVKMIQVSFGSLKEYDVNNRFFSKDLAGGALLDIGTYALSFTRYFLSSQPEEILTTVKKFETGVDEQSGIILKNAEDEMAVISLTMRAKQPKRGVVAGEKAYITVENFPRADKATITYPDGSVEVVEAGETDRALVYEVQDMKACILNKDTDYTLQLSLGVMNIMDEVRSQWGIRYPFEEGHHHHHH	soluble
MSLRPFATKAEADAAVADIRARGRLIVGLDIGSNLFSFRDPITGEITGFDVDIAGEVARDIFGVPSHVEYRILSAAERVTALQKSQVDIVVKTMSITCERRKLVNFSTVYLDANQRILAPRDSPITKVSDLSGKRVCVARGTTSLRRIREIAPPPVIVSVVNWADCLVALQQREIDAVSTDDTILAGLVEEDPYLHIVGPDMADQPYGVGINLDNTGLVRFVNGTLERIRNDGTWNTLYRKWLTVLGEGHHHHHH	soluble
MSLRPTPAPSFSGVTVDGKPFSSASLKGKAYIVNFFATWCPPCRSEIPDMVQVQKTWASRGFTFVGIAVNEQLPNVKNYMKTQGIIYPVMMATPELIRAFNGYIDGGITGIPTSFVIDASGNVSGVIVGPRSKADFDRIVKMALGAKAATKKGIITITTDPNSSSVDKLAAALEHHHHHH	soluble
MSLRRARIAFASIDYTGDAWRHIPSVIGEMFAGIGEHAWRRDAVLEIVGVEDEEAEGYLRRVAERRPVDGLLLRVANDIRGEHLDILERAGMPYVLIKRHIPGRRMNCVISDDVTGARMATSHLLELGHRRIGFVCGKPHLTLNRERLAGYREALEEHGVGFDEGLVRQEEHFTTEMGYRAVRSLLEAPSRPSAVFVASDTMAIGGYEAVWDLGLRIPDDVSIVGYDDIQAASALQPPLTTVRTSYYDFGRLAAQLLLDLIEGREVAPQRRVIHPTLVVRGSTREGHHHHHH	soluble
MSLRSAKHHFGAATSRGTRPSNEDTYQAGVIDIPAFAKRPPASLTIRNRSARVAGLRENRGADSASGDPQVFYFGIFDGHGGSECSTFMKETLHEYIQDTAAEFELQSSLRKAGENSASPDAESELPIRQGSNVARVQRLEKSLVQSWRNLVGGYFRRFVPPNFSHLAKHTAEESSSVPENNKGVTIEEILEYAFLRADLDFVSAQASREDDELSNVCRPLYQDDILYGPSRSQSLNIAGLRRFKGGSTASTVMISTPTPAPFWHPASPSSLLVSHVGDTRMLLCSTVTGEAIPLTSNHHPSSPIEANRLRRYAATFVTDSFGEERISGLANTRAFGDVQSKRIGVSAEPELRRFEIAPAEYSFLVLMSDGISEALTDQEVVDIIKEAKTPDEGARHVVNFATEVTRTGDNATCLVVRLGGWEREGHHHHHH	not soluble
